From the DeepSol protein solubility set

Experiment: soluble on expression in E. coli; label from the status in PepcDB or PDB records

Q: Which “soluble on expression in E. coli” value does the source give for “MGLLVLGTPLDWPESKKYCDYVRENGIMQFLHMYDTYISKKQDVLLWGDEIECIVVSMDDKSKKARVSLRQEDILNALGKYEETFRHVDFGPVYAALRNETCPKKIDAILSEVAKNPADYVERIGGNSNKDTIEITSSTKPHAQNAVPTFHPEYGRYMLESTPGAPYGSTLKDFTFVEYNMRLRRKIIENHLLPNELPLTITNFFRLGTPGFTDPEVEANGAISRSFFLPDDVINTHVRFPTLTANIRQRRGRKVAMNVPIFFDKNTIKPFHDPTVPWDRNLFPEDANARDGAALDNHIYMDSMGFGMGCCCLQITFQAKSCDEARLLYDQLTPITPLMLALSAGTPAFRGYLADQDCRWNVIAGAVDDRTEEEMKTVPKSRYDSVDLYISNDKRNLPEYNDVPVVINQDCYDKLIKDCIDERLAKHMAHIFSRDPLVIFSDSILQDNSVSNAHFENLNSTNWQSMRFKPPPPGSDIGWRVEFRSMEIQITDFENAAYSIFVVMLSRAILSFNLNLYMPISLVDENMKAAHARDAIHRKKFWFRCNPFPDASTDDESGQFRQLTIDELFNGEHRENGFPGLITIVRSYLYSCNPDAKTICLIERYIRLISQRANGQCLTAASWIRNFITTHPSYKQDSVVNDEINYDLIRRIAKIVDGDYDDTLLGKCS” here?
A: The value was “soluble”.

Q: For “MTTSLIHMANHLDASTEEISLNYVLLGHPHHERAQHHPSYMDMIKGAIQAIDNGTGSSKAAILKYIAQNYHVGENLPKVNNHLRSVLKKAVDSGDIEQTRGHGATGSFRMGKECEKNLQVGIPVQTKPMLMLKEVRQKLENISKAEKTKPSTSSMSTNKKGKPISTMKKRGVMSKKRSSKNKMAPKAKSHGLKKKGPATKSSGLVHKAAGAKNEAAPTTKMELRTGTRKSYC”, which “soluble on expression in E. coli” value is on record?
A: The value was “not soluble”.

Q: For “MAHHHHHHMGTLEAQTQGPGSMTAASSSAPTLGIIRLEHAKGLDLPAYETAGSAGMDLRAAVAEDRQIVLLPGRRTLVPTGLILEIPQGYEVQIRPRSGLAFKNGITCLNTPGTIDSDYRGEVKVLLINLGDDDFRIERGMRIAQAVFAPVIQPKIEERAKISETARGAGGFGSTGTA”, which “soluble on expression in E. coli” value is on record?
A: The value was “soluble”.

Q: For “MGSSHHHHHHSSGLVPRGSHMASNVKKFPEGFLWGVATASYQIEGSPLADGAGMSIWHTFSHTPGNVKNGDTGDVACDHYNRWKEDIEIIEKLGVKAYRFSISWPRILPEGTGRVNQKGLDFYNRIIDTLLEKGITPFVTIYHWDLPFALQLKGGWANREIADWFAEYSRVLFENFGDRVKNWITLNEPWVVAIVGHLYGVHAPGMRDIYVAFRAVHNLLRAHARAVKVFRETVKDGKIGIVFNNGYFEPASEKEEDIRAVRFMHQFNNYPLFLNPIYRGDYPELVLEFAREYLPENYKDDMSEIQEKIDFVGLNYYSGHLVKFDPDAPAKVSFVERDLPKTAMGWEIVPEGIYWILKKVKEEYNPPEVYITENGAAFDDVVSEDGRVHDQNRIDYLKAHIGQAWKAIQEGVPLKGYFVWSLLDNFEWAEGYSKRFGIVYVDYSTQKRIVKDSGYWYSNVVKNNGLED”, which “soluble on expression in E. coli” value is on record?
A: The value was “soluble”.

Q: For “DRQREAAQPAASQSASAMEANPTPAPDRSTSTSLFGDSDSAPRHRLNEEPAARRTSHDSEGMYTRRSVPRESYRDQRSDDFDDDLDIPDFLR”, which “soluble on expression in E. coli” value is on record?
A: Its value is “not soluble”.

Q: With “GYRALSFPDPLDSQPVQAIAFYPSTGSEHLSIIHGYRVEASEDAPIAMGRFPLLLLSHGNTGTPLALHDLATSLARQGFVVVAVVHPGDNDRDHSRLGSLSNLYGRPLQISEAISTALLDPVLAPYLNARQVGVIGYSAGGETALILAGAQPDLQRLRQYCLERPTDRDACKTQGELVADRDDLHAQADPRVGALMLMAPLSLMFGRHTLGDVHVPVLMYAGDDDQLLALDRNAEALARKLPQAPDYKLLAGAGHFVFMAPCSDEQREAAPLL” as the sequence, how does the “soluble on expression in E. coli” value read?
A: Its value is “not soluble”.

Q: Which “soluble on expression in E. coli” value does the source give for “PKPLKNLDGQFCEICGDQIGLTVEGDLFVACNECGFPACRPCYEYERREGTQNCPQCKTRYKRLRGSPRVEGDEDEEDID” here?
A: The value was “soluble”.

Q: Which “soluble on expression in E. coli” value does the source give for “MTGKKRSASSSRWLQEHFSDKYVQQAQKKGLRSRAWFKLDEIQQSDKLFKPGMTVVDLGAAPGGWSQYVVTQIGGKGRIIACDLLPMDPIVGVDFLQGDFRDELVMKALLERVGDSKVQVVMSDMAPNMSGTPAVDIPRAMYLVELALEMCRDVLAPGGSFVVKVFQGEGFDEYLREIRSLFTKVKVRKPDSSRARSREVYIVATGRKP” here?
A: The value was “soluble”.

Q: For “MHHHHHHSSGVDLGTENLYFQSNAMNFKLNNTLSNEINTLIIGIPEHLNQLERISFNHIDITESLERLKHQHIIGSKVGKIYTTAFDVQDQTYRLITVGLGNLKTRSYQDMLKIWGHLFQYIKSEHIEDTYLLMDSFISKYDQLSDVLMACGIQSERATYEFDHYKSSKKAPFKTNLNLISESLIELDFIHEGISIGQSINLARDFSNMPPNVLTPQTFAEDIVNHFKNTKVKVDVKDYDTLVSEGFGLLQAVGKGSKHKPRLVTITYNGKDKDEAPIALVGKGITYDSGGYSIKTKNGMATMKFDMCGAANVVGIIEAASRLQLPVNIVGVLACAENMINEASMKPDDVFTALSGETVEVMNTDAEGRLVLADAVFYANQYQPSVIMDFATLTGAAIVALGDDKAAAFESNSKVILNDILQISSEVDEMVFELPITATERASIKHSDIADLVNHTNGQGKALFAASFVTHFSGQTPHIHFDIAGPATTNKASYNGPKGPTGFMIPTIVQWLKQQ”, which “soluble on expression in E. coli” value is on record?
A: The value was “soluble”.

Q: With “MAHHHHHHMGPTPYQDKPYPVQPHNLNEFQQPPDTWRKSPFMSKLMDQALPVYDDVVTGSGRLYWQEPAKVWHLFEADDTLILEEHDREEWNERPYVAVNHLYEPPIGSEERPIRVEAVGNPGDQQIVMCFGNCAPHVPQSTYYMMMKGYSKNKCPMCQQWFYIHNRPWLVMHPDWTDEPAADEGPAYTFAEIEAEFDRDFHEFAVYLNAE” as the sequence, how does the “soluble on expression in E. coli” value read?
A: Its value is “not soluble”.

Q: Which “soluble on expression in E. coli” value does the source give for “MPLSYYEKGIMYKRKNFMGPAVKCFEEARKLEEKVGSKASLELAKIYAYFKDYEEAYKYCKEAISKSNYIEAYYLMVRILLLSNTPINEILKKAGKVKIHNSLLADIFCFEGNYEVALKIIDTCLKEDEVTRDLELIKIKCLLKLKQYDKCKDYIDNFSQSYLYFFKIRMYKVICCVLLEEYRLAWKIIDEFDYKKLSLYNKNKLKAYINFYNAALDIRGITPHENDEEYYSCIFEIIDILLATKEIKCLKKLIQTISKYDGGYLELAELYSNYGYVSEAKKLIVLYIKKFEVVNNKMIYILQKLEHHHHHH” here?
A: Its value is “not soluble”.

Q: Which “soluble on expression in E. coli” value does the source give for “MKDAQLNTLCQRHQAVLINSASNSITVAVVDAPSHALLDALHFATQKQIDIVCWTRQQMENHRHKPDQAPSANAAKGGETAAQLLNQTLRSAMAKRASDIHLEPGASRYRIRLRIDGVLHILQDIAKETGLALTARLKVLGNLDIAEHRLPQDGQFTVDLAGDSISFRIATLPCKEGEKVVLRLLHQVEQTLDLDTLGMYGAQLTAFRQALQQPQGLVLVTGPTGSGKTVTLYSALQTRNTPGINLCSVEDPIEIPLDGINQTQIHPRAGLTFQNVLRALLRQDPDIIMVGEIRDGDTAEIAIKAAQTGHLVLSTLHTNSTSETLIRLQQMGVARWMISSALTLVVAQRLVRKLCPHCKQRLSDPVVLSPNLWPSAIPRWQASGCQHCYHGFYGRTALFEVLTVTPALRQLIASGASAQALEAHLQQTGTGTLFENGCRAVEQGMTSFEEILCVLGMPHER” here?
A: The value was “not soluble”.

Q: For “MSLKSWVKMNSWTSEDTKAVKMWFDLDKYREFENISINMLYHEIWARTYFFKPVIEEGMQKTVLKNYMQILDGDPFLIKEKHLNYMDSENKSYQPPYFFITTVDRIANISFACMRKALFIRANTEQYKIDSTIENEYISEIIPEQFPTTIMLEIDLAGGSDDEIAEALRVSLPQWRKVKGVKPAPLDAVRFGYGAIKKLISYRIIPMLDLLAWSERKKVLLSDDRLSRLLYTDEDDDKAIRQGYHIRDADRPFAMKTVETDFLRQFNFFINKNQHVKEMRVSDVMKLSDSEGHHHHHH”, which “soluble on expression in E. coli” value is on record?
A: The value was “not soluble”.

Q: Which “soluble on expression in E. coli” value does the source give for “EKKRIESLINNMYDPVIGLDENLKILFVNEQAIKIIGISQEELIGHYTQELAIKNDLVRTLVQDLMVAENTPSNKAIPIKIYSNNKEGYFEKEILHISVTPTGEQVKQLIGHVIILRNIT” here?
A: The value was “not soluble”.

Q: With “MENNVESNLQPVPMRYGDKRYYSWNQHLREQFGEKVFKVPLDAGFDCPNRDGNVASGGCTFCSERGSGDFAGDRKDDLVTQFHTIKERMHKKWTSGKYIGYFQAYTNTYAPVETLREYYEVILEQEGVVGLAIATRPDCLPDDVVEYLAELNKRTYLWVELGLQTVHERTALLINRAHDYQCYVDGVNKLRKHGIRVCSHIINGLPLENHQMMMETAKEVAKLDVQGIKIHSLHLLKRTPMVKQYEKGLVEFMSLEEYVNLVVDQLEVLPPHMIIHRLMGDGPGDLMIGPMWSMKKWEVLNAIEAELERRDSWQGKHYRAQVEVQ” as the sequence, how does the “soluble on expression in E. coli” value read?
A: The value was “not soluble”.

Q: With “MGSDKIHHHHHHMKIKHIFTDMDGTLLDSHGSVSDTNHWSIYYSDLPITLVSARSPLEMSNIVEKLQLRTPQIAFNGNLTFTQNQFGLQIIDKNPLASETVSQLLNYISTEFPNVSLNWYSLAHWYINKQDKGTFIQKAITGIEPKIKTFDGQSEIYKIMMIVFDSQELLQLQAQLNNLNIPNISVQQSGQWYLEITSDNKTKADAVQSILDNKNLDFQEIAAIGDGHNDIPLLQSAGLAIAVDNANSEVKKHVKMVVAKNTEHGVAEAISAINTINEQVI” as the sequence, how does the “soluble on expression in E. coli” value read?
A: The value was “not soluble”.

Q: Which “soluble on expression in E. coli” value does the source give for “MNSLPVAIIGGGPVGLAAAAHLAVRDVPFVLFEGKSEVGASILEWKHVSLFSPWKYNIDRAAKSLLEKESWKEPAGDRLPTGEQLVRDYLQPLAETKALKPYIYTNAPVQSIYRKGIDKIKDHNRENTPFIIRYKQDNDQKTLRARAVIDATGTWFSPNPIGAGGVPAIGEEEAKDSIYYGIPDVKGKDRSRYEGKTILVVGSGHSAIHTLLDLAQLKEAAPSTRILWAIRRNSPNGLFGGGQEDALPARGQLGLALEALLSKQKVELISSFEMEQIDRVEGRLSVVGVQNESPISLPLVDEIVANTGARPTVDYHRDIRYQLDSKLESVPALAPLIDPNIHSCGTVRPHGEKELRQPEKNFYIAGVKSYGRAPTFLLATGYEQVRSIVASLAGSKKEAERVELQLPKTGVCKSDFLAKRSCCLEHHHHHH” here?
A: The value was “soluble”.

Q: Which “soluble on expression in E. coli” value does the source give for “MGSDKIHHHHHHMFNTAVKILYRSLIELTNHRLSSYLIKGFCESKISKPVIPLFSKHFRLNWDDVDGTAADYGSLSELFIRQINLERRPVSKEAHAVVSPVDGVVQTVGIINPNQTFTVKGKDYSFAELTGCKSADHQYNGGYFVVLYLSPRHYHRFHSPISCRYQKLAELGNRSYPVNQLGLKYGKDVLSKNYRFVYELNSGSRNVLMIPVGAMNINSIVQTNTRTELEIGEELGYFSFGSTVILVFEKDAFQPSAHLAEGQEVQVGELIGYEE” here?
A: The value was “not soluble”.

Q: Which “soluble on expression in E. coli” value does the source give for “MGSDKIHHHHHHMWTQQMIHTKRGTFELFTKGNGEPLCITHHYSQFNETGDYFADVFTSTHRVLLINLRDAGNSAKANSEKELSMIETIHDLEAIREALQLPTWHFAGHSTGGMLGLLYAITYPKSLQSLVLVGAAASNYTETPFCIYHPEHPQFHYMQHLIENLKSPHLTNEERKELSTERTKLSLHKPENYNSYFCKPIQKTMSASRMNAFSHEYPAFNLREHLPSMKTKTLIICGRYDVQCPIQYSIEMHEGIRNSIFVTFEESNHYPFLEEAAQFTSTIRTFYKLLH” here?
A: The value was “not soluble”.

Q: Which “soluble on expression in E. coli” value does the source give for “PSETFYRAKIQEQRERHARYHDTTYNLEPDIKSTPGGLRDIHTLSWVARRHFGATSLLEMSRYGFLTDAEYRELVECQDFLWRVRFALHIELRRYDNRLTFAHQAQVAENLGYVGEGNRGVEMMMKEFYRTLRRVAELNKMLLKLFDQAIINGGATENAEILDADFQRRGSLIEARKPALFQARPETILDMFLHIANDSTIEGVSPPTLRQLRTARRRLN” here?
A: Its value is “not soluble”.
